# Experimental data as given in article PMC3576024.
# B1: aaNAT1 (PaaNAT1) (Aedes aegypti) (protein)
# chain: MASKMSTVSSDAKGAIVKPSSTDDSTLPLDEVDTNISIELITEDDAEDVLKLLKKFFFKDEPLNTFVNLGECKELEKYSTKNLHEHCSFKAVNGRGEIVGVNINGLINRPKETDEPPAKLADGCEHPKFKKIMALMDYVDEHFNIFDLYPDVDRMLDVKIMSVDSRYRGLGIAGKLTDRTMQYVKDNNIKLVHVLCSSHFSARVMEKLDFEEVYKLDYSDYLVNGEQVFDPEKPHTAVRILTKRLA
# B2: aaNAT2 (PaaNAT2) (Aedes aegypti) (protein)
# chain: MLDSKLNNIRFETISSKYYDDVIEHLRQTFFADEPLNKAVNLTRPGQGHPLLEQHSLSTLKDNVSIMAISNDGDIAGVALNGILYGNTDIEKSREKLNEIQDESFKKIFKLLYEQNLKINLFKQFDVDKIFEIRILSVDSRFRGKGLAKKLIEKSEELALDRGFQVMKTDATGAFSQRVVSSLGFITKCEINYTDYLDENGEQIFVVDPPHEKLKIMCKVIN
# Experiments:
# Assay in all cases: DTNB colorimetric detection of released CoA, Michaelis-Menten fit
# Type in all cases: biochemical, Aedes aegypti
# Conditions in all cases: apparent Km; 0.4 mM acetyl-CoA, 50 mM Tris-HCl, 1.0 mg/mL BSA, room temperature
# [1] = substrate: NCCc1c[nH]c2ccc(O)cc12
# [2] = substrate: NCCc1c[nH]c2ccccc12
# [3] = substrate: NCCc1ccc(O)c(O)c1
# [4] = substrate: NCCc1ccc(O)cc1
# [5] = substrate: NC[C@H](O)c1ccc(O)c(O)c1
# [6] = substrate: NC[C@H](O)c1ccc(O)cc1
Protein,Km [1],kcat [1],kcat/Km [1],Km [2],kcat [2],kcat/Km [2],Km [3],kcat [3],kcat/Km [3],Km [4],kcat [4],kcat/Km [4],Km [5],kcat [5],kcat/Km [5],Km [6],kcat [6],kcat/Km [6]
B1,230 ± 60 µM,7.54 ± 0.595 s⁻¹,32800 M⁻¹ s⁻¹,160 ± 40 µM,7.34 ± 0.528 s⁻¹,45900 M⁻¹ s⁻¹,190 ± 70 µM,7.3 ± 0.742 s⁻¹,38400 M⁻¹ s⁻¹,170 ± 40 µM,6.77 ± 0.413 s⁻¹,39800 M⁻¹ s⁻¹,160 ± 40 µM,7.76 ± 0.577 s⁻¹,48500 M⁻¹ s⁻¹,140 ± 80 µM,7.26 ± 1.12 s⁻¹,51900 M⁻¹ s⁻¹
B2,230 ± 50 µM,3.16 ± 0.198 s⁻¹,13800 M⁻¹ s⁻¹,170 ± 40 µM,3.05 ± 0.197 s⁻¹,17900 M⁻¹ s⁻¹,130 ± 50 µM,2.56 ± 0.25 s⁻¹,19700 M⁻¹ s⁻¹,170 ± 30 µM,3.17 ± 0.183 s⁻¹,18600 M⁻¹ s⁻¹,420 ± 60 µM,3.47 ± 0.192 s⁻¹,8270 M⁻¹ s⁻¹,270 ± 40 µM,3.65 ± 0.175 s⁻¹,13500 M⁻¹ s⁻¹
